Measurements as given in PMC3601584 (Nature communications, 2013).

Assays:
[1] = biological target: T1, TPST2ΔC18 (38 kDa core domain of human tyrosylprotein sulfotransferase-2, Gly43–Leu359) (human, UniProt O60704 43-359); assay: crystal structure
T1 sequence (looked up): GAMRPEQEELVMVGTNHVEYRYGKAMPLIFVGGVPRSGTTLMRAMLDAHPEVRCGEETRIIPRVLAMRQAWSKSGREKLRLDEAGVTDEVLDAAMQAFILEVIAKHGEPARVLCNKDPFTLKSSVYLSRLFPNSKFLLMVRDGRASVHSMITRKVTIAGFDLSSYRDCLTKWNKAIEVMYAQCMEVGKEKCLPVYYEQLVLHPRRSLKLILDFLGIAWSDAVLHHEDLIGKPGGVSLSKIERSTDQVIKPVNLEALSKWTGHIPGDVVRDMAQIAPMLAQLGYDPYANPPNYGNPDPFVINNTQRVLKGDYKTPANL

crystal structure = biological target: the molecule itself; assay: crystal structure

B1: C4P5Y3 peptide (substrate peptide derived from human complement C4) (peptide)
peptide: EDFEDYEFD
binding result [1]: binds

B2: TPST2 (proposed catalytic domain of human tyrosylprotein sulfotransferase-2, Gly43-Ser377) (domain or fragment, UniProt O60704 43-377, looked up)
chain: GAMRPEQEELVMVGTNHVEYRYGKAMPLIFVGGVPRSGTTLMRAMLDAHPEVRCGEETRIIPRVLAMRQAWSKSGREKLRLDEAGVTDEVLDAAMQAFILEVIAKHGEPARVLCNKDPFTLKSSVYLSRLFPNSKFLLMVRDGRASVHSMITRKVTIAGFDLSSYRDCLTKWNKAIEVMYAQCMEVGKEKCLPVYYEQLVLHPRRSLKLILDFLGIAWSDAVLHHEDLIGKPGGVSLSKIERSTDQVIKPVNLEALSKWTGHIPGDVVRDMAQIAPMLAQLGYDPYANPPNYGNPDPFVINNTQRVLKGDYKTPANLKGYFQVNQNSTSSHLGSS
binding result (crystal structure): binds
